Several values for one entry are separate records, joined by “and”; a condition that tells them apart may be missing. Equal values may be shown once. Non-standard residues stand in square brackets, D forms with d.
How the values were obtained:
MMP-2 = MMP-2 (UniProt P08253 30-660); assay: cell-based or functional assay
MMP-14 = MMP-14 (UniProt P50281 112-541); assay: cell-based or functional assay
native gel or EMSA = biological target: the molecule itself; assay: native gel or EMSA

Sequence of MMP-2 (P08253 30-660): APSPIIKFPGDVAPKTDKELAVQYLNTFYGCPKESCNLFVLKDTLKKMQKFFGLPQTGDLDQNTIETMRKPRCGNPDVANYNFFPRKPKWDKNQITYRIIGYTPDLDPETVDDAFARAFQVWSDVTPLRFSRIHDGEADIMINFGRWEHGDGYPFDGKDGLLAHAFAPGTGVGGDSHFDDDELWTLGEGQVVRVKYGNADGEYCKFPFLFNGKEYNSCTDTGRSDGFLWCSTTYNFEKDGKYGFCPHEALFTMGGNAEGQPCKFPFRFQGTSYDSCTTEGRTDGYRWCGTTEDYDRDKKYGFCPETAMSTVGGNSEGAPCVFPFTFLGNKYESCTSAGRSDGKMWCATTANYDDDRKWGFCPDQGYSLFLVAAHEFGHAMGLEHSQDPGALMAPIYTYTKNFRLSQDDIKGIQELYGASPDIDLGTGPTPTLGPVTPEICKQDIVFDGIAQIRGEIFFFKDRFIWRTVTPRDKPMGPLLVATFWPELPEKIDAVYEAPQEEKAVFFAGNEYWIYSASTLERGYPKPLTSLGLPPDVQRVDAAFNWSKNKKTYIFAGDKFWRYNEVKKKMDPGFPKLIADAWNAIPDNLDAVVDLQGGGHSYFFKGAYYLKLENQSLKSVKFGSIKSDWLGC

B1: cyclo-RLsKDK (BK-1361) (peptide)
peptide: cyclo(RL[dS]KDK)
SMILES: CC(C)C[C@@H]1NC(=O)[C@H](CCCNC(=N)N)NC(=O)[C@H](CCCCN)NC(=O)[C@H](CC(=O)O)NC(=O)[C@H](CCCCN)NC(=O)[C@@H](CO)NC1=O
- IC50 of inhibition of catalytic activity (substrate Mca-PLGL-Dpa-AR-NH2) (MMP-2): > 10 µM
- IC50 of inhibition of catalytic activity (substrate Mca-KPLGL-Dpa-AR-NH2) (MMP-14): > 10 µM

B2: Inactive recombinant human ADAM8 (Met1-Pro497) (domain or fragment, UniProt P78325-1 17-497, looked up)
chain: IAPSRPWALMEQYEVVLPWRLPGPRVRRALPSHLGLHPERVSYVLGATGHNFTLHLRKNRDLLGSGYTETYTAANGSEVTEQPRGQDHCFYQGHVEGYPDSAASLSTCAGLRGFFQVGSDLHLIEPLDEGGEGGRHAVYQAEHLLQTAGTCGVSDDSLGSLLGPRTAAVFRPRPGDSLPSRETRYVELYVVVDNAEFQMLGSEAAVRHRVLEVVNHVDKLYQKLNFRVVLVGLEIWNSQDRFHVSPDPSVTLENLLTWQARQRTRRHLHDNVQLITGVDFTGTTVGFARVSAMCSHSSGAVNQDHSKNPVGVACTMAHEMGHNLGMDHDENVQGCRCQERFEAGRCIMAGSIGSSFPRMFSDCSQAYLESFLERPQSVCLANAPDLSHLVGGPVCGNLFVERGEQCDCGPPEDCRNRCCNSTTCQLAEGAQCAHGTCCQECKVKPAGELCRPKKDMCDLEEFCDGRHPECPEDAFQENGTP
- stoichiometry N (native gel or EMSA): 2 and 3

Source: publication PMC5014123 (Nature communications, 2015)
